Key:
[1] = compound: CCN(CC)Cc1ccccc1CNC(=O)c1cc(C)cc(NC(=O)c2ccc(F)cc2)c1; experiment: Non competitive inhibition of human BChE assessed as Km at 0.1 nM using BTC as substrate by Lineweaver-Burk plot analysis
[2] = compound: CCN(CC)Cc1ccccc1CNC(=O)c1cccc(NC(=O)c2ccc(F)cc2)c1; experiment: Mixed type inhibition of human BChE assessed as Km at 1.5 nM using BTC as substrate by Lineweaver-Burk plot analysis
[3] = compound: CCN(CC)Cc1ccccc1CNC(=O)c1cc(C)cc(NC(=O)c2ccc(F)cc2)c1; experiment: Non competitive inhibition of human BChE assessed as Vmax at 0.02 nM using BTC as substrate by Lineweaver-Burk plot analysis
[4] = compound: CCN(CC)Cc1ccccc1CNC(=O)c1cc(C)cc(NC(=O)c2ccc(F)cc2)c1; experiment: Non competitive inhibition of human BChE assessed as Km at 0.15 nM using BTC as substrate by Lineweaver-Burk plot analysis
[5] = compound: CCN(CC)Cc1ccccc1CNC(=O)c1cccc(NC(=O)c2ccc(F)cc2)c1; experiment: Mixed type inhibition of human BChE assessed as Km at 1 nM using BTC as substrate by Lineweaver-Burk plot analysis
[6] = compound: CCN(CC)Cc1ccccc1CNC(=O)c1cc(C)cc(NC(=O)c2ccc(F)cc2)c1; experiment: Non competitive inhibition of human BChE assessed as Vmax at 0.12 nM using BTC as substrate by Lineweaver-Burk plot analysis
[7] = compound: CCN(CC)Cc1ccccc1CNC(=O)c1cccc(NC(=O)c2ccc(F)cc2)c1; experiment: Mixed type inhibition of human BChE assessed as Vmax at 1.5 nM using BTC as substrate by Lineweaver-Burk plot analysis
[8] = compound: CCN(CC)Cc1ccccc1CNC(=O)c1cccc(NC(=O)c2ccc(F)cc2)c1; experiment: Mixed type inhibition of human BChE assessed as Km at 0.4 nM using BTC as substrate by Lineweaver-Burk plot analysis
[9] = compound: CCN(CC)Cc1ccccc1CNC(=O)c1cc(C)cc(NC(=O)c2ccc(F)cc2)c1; experiment: Non competitive inhibition of human BChE assessed as Vmax at 0.15 nM using BTC as substrate by Lineweaver-Burk plot analysis
[10] = compound: CCN(CC)Cc1ccccc1CNC(=O)c1cccc(NC(=O)c2ccc(F)cc2)c1; experiment: Mixed type inhibition of human BChE assessed as Vmax at 1 nM using BTC as substrate by Lineweaver-Burk plot analysis
[11] = compound: CCN(CC)Cc1ccccc1CNC(=O)c1cccc(NC(=O)c2ccc(F)cc2)c1; experiment: Mixed type inhibition of human BChE assessed as Vmax at 0.2 nM using BTC as substrate by Lineweaver-Burk plot analysis
[12] = compound: CCN(CC)Cc1ccccc1CNC(=O)c1cccc(NC(=O)c2ccc(F)cc2)c1; experiment: Mixed type inhibition of human BChE assessed as Vmax at 0.8 nM using BTC as substrate by Lineweaver-Burk plot analysis
[13] = compound: CCN(CC)Cc1ccccc1CNC(=O)c1cccc(NC(=O)c2ccc(F)cc2)c1; experiment: Mixed type inhibition of human BChE assessed as Km at 0.2 nM using BTC as substrate by Lineweaver-Burk plot analysis
[14] = compound: CCN(CC)Cc1ccccc1CNC(=O)c1cccc(NC(=O)c2ccc(F)cc2)c1; experiment: Mixed type inhibition of human BChE assessed as Km at 0.8 nM using BTC as substrate by Lineweaver-Burk plot analysis
[15] = compound: CCN(CC)Cc1ccccc1CNC(=O)c1cc(C)cc(NC(=O)c2ccc(F)cc2)c1; experiment: Non competitive inhibition of human BChE assessed as Km at 0.02 nM using BTC as substrate by Lineweaver-Burk plot analysis
[16] = compound: CCN(CC)Cc1ccccc1CNC(=O)c1cccc(NC(=O)c2ccc(F)cc2)c1; experiment: Mixed type inhibition of human BChE assessed as Vmax at 0.4 nM using BTC as substrate by Lineweaver-Burk plot analysis
[17] = compound: CCN(CC)Cc1ccccc1CNC(=O)c1cc(C)cc(NC(=O)c2ccc(F)cc2)c1; experiment: Non competitive inhibition of human BChE assessed as Km at 0.12 nM using BTC as substrate by Lineweaver-Burk plot analysis
[18] = compound: CCN(CC)Cc1ccccc1CNC(=O)c1cc(C)cc(NC(=O)c2ccc(F)cc2)c1; experiment: Non competitive inhibition of human BChE assessed as Vmax at 0.1 nM using BTC as substrate by Lineweaver-Burk plot analysis

B1: Cholinesterase (Homo sapiens), P06276 (protein)
chain: MHSKVTIICIRFLFWFLLLCMLIGKSHTEDDIIIATKNGKVRGMNLTVFGGTVTAFLGIPYAQPPLGRLRFKKPQSLTKWSDIWNATKYANSCCQNIDQSFPGFHGSEMWNPNTDLSEDCLYLNVWIPAPKPKNATVLIWIYGGGFQTGTSSLHVYDGKFLARVERVIVVSMNYRVGALGFLALPGNPEAPGNMGLFDQQLALQWVQKNIAAFGGNPKSVTLFGESAGAASVSLHLLSPGSHSLFTRAILQSGSFNAPWAVTSLYEARNRTLNLAKLTGCSRENETEIIKCLRNKDPQEILLNEAFVVPYGTPLSVNFGPTVDGDFLTDMPDILLELGQFKKTQILVGVNKDEGTAFLVYGAPGFSKDNNSIITRKEFQEGLKIFFPGVSEFGKESILFHYTDWVDDQRPENYREALGDVVGDYNFICPALEFTKKFSEWGNNAFFYYFEHRSSKLPWPEWMGVMHGYEIEFVFGLPLERRDNYTKAEEILSRSIVKRWANFAKYGNPNETQNNSTSWPVFKSTEQKYLTLNTESTRIMTKLRAQQCRFWTSFFPKVLEMTGNIDEAEWEWKAGFHRWNNYMMDWKNQFNDYTSKKESCVGL
Q: How did the Km [1] turn out when B1 was run?
A: 204 s⁻¹

Q: What about the Km [2] of the same protein?
A: 707 s⁻¹

Q: What about the Vmax [3] of the same protein?
A: 0.38 s⁻¹

Q: What about the Km [4] of the same protein?
A: 201 s⁻¹

Q: What about the Km [5] of the same protein?
A: 684 s⁻¹

Q: What about the Vmax [6] of the same protein?
A: 0.19 s⁻¹

Q: And the Vmax [7]?
A: 0.48 s⁻¹

Q: And the Km [8]?
A: 558 s⁻¹

Q: What about the Vmax [9] of the same protein?
A: 0.15 s⁻¹

Q: And the Vmax [10]?
A: 0.61 s⁻¹

Q: What about the Vmax [11] of the same protein?
A: 0.7 s⁻¹

Q: And the Vmax [12]?
A: 0.63 s⁻¹

Q: And the Km [13]?
A: 511 s⁻¹

Q: What about the Km [14] of the same protein?
A: 621 s⁻¹

Q: And the Km [15]?
A: 205 s⁻¹

Q: And the Vmax [16]?
A: 0.86 s⁻¹

Q: And the Km [17]?
A: 201 s⁻¹

Q: What about the Vmax [18] of the same protein?
A: 0.24 s⁻¹

Source: ChEMBL document CHEMBL5137095, “N-Benzyl Benzamide Derivatives as Selective Sub-Nanomolar Butyrylcholinesterase Inhibitors for Possible Treatment in Advanced Alzheimer's Disease” (J Med Chem, 2022)
